Source: patent US20130052176, “APTAMER FOR NGF AND USE THEREOF” (SHIONOGI & CO., LTD, published 2013)
Substitutions are numbered along the chain they refer to.

Assays:
[1] = target: T1, NGF (nerve growth factor) (human, UniProt P01138 P01138:122-241); test: cell_activity; neurite outgrowth, NGF 1.1 nM; SPR binding; blocks NGF-TrkA; TF-1 IC50 8.0 nM; conditions: tags: amine-coupled to CM5 chip in SPR; soluble in cell assays; chain copies: 2
Protocol: (§1) The neurite outgrowth inhibitory activity of the aptamer obtained in Example 1 was evaluated by using Neuroscreen-1 cell, which is a subclone of PC-12 cells.
(§2) The cells (2500 cells per well) were cultured for one day in an RPMI-1640 medium containing 2.5% horse serum and 1.25% fetal bovine serum in a 96 well flat-bottom plate coated with collagen type IV. […] Two days later, the cytoplasm and nuclei were stained using Cellomics Neurite Outgrowth Kit (manufactured by Thermo Scientific), and neurite length per cell was measured by Cellomics ArrayScan VTI (manufactured by Thermo Scientific). With the neurite length per cell obtained by the addition of NGF alone as inhibitory activity 0%, and that of the cell obtained by NGF free culture for 2 days as inhibitory activity 100%, the inhibitory activity of the aptamer was calculated from the neurite length per cell obtained by culturing with the addition of NGF and the aptamer in mixture. When the inhibitory activity was 0% or below, ‘0%’ is indicated.

[2] = target: T1, NGF (nerve growth factor); test: cell_activity; neurite outgrowth, NGF 1.1 nM; SPR binding; blocks NGF-TrkA and NGF-p75; conditions: tags: amine-coupled to CM5 chip in SPR; soluble in cell assays; chain copies: 2
Protocol: as §1, §2

NT-3 = target: T2, NT-3 (human, UniProt P20783 P20783:139-257); test: SPR; binding to NT-3 not observed; TF-1 IC50 >1000 nM; conditions: tags: R&D Systems; chain copies: 2
T2 sequence: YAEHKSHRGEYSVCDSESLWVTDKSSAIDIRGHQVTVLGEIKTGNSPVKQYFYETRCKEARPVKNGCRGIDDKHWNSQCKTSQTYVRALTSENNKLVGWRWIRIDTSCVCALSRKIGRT

[3] = target: T1, NGF (nerve growth factor); test: cell_activity; neurite outgrowth, NGF 0.38 nM; SPR binding; blocks NGF-TrkA and NGF-p75; TF-1 IC50 0.07 nM; conditions: tags: amine-coupled to CM5 chip in SPR; soluble in cell assays; chain copies: 2
[4] = target: T1, NGF (nerve growth factor); test: cell_activity; neurite outgrowth, NGF 1.1 nM; SPR binding; TF-1 IC50 5.4 nM; conditions: tags: amine-coupled to CM5 chip in SPR; soluble in cell assays; chain copies: 2
Protocol: as §1, §2

[5] = target: T1, NGF (nerve growth factor); test: cell_activity; neurite outgrowth, NGF 1.1 nM; SPR binding; blocks NGF-TrkA and NGF-p75; TF-1 IC50 1.3 nM; conditions: tags: amine-coupled to CM5 chip in SPR; soluble in cell assays; chain copies: 2
Protocol: as §1, §2

[6] = target: T1, NGF (nerve growth factor); test: cell_activity; neurite outgrowth, NGF 1.1 nM; SPR binding; TF-1 IC50 6.3 nM; conditions: tags: amine-coupled to CM5 chip in SPR; soluble in cell assays; chain copies: 2
Protocol: as §1, §2

[7] = target: T1, NGF (nerve growth factor); test: cell_activity; neurite outgrowth, NGF 1.1 nM; SPR binding; blocks NGF-TrkA and NGF-p75; TF-1 IC50 2.1 nM; conditions: tags: amine-coupled to CM5 chip in SPR; soluble in cell assays; chain copies: 2
Protocol: as §1, §2

[8] = target: T1, NGF (nerve growth factor); test: cell_activity; neurite outgrowth, NGF 0.38 nM; SPR binding; TF-1 IC50 0.1 nM; conditions: tags: amine-coupled to CM5 chip in SPR; soluble in cell assays; chain copies: 2
[9] = target: T1, NGF (nerve growth factor); test: cell_activity; neurite outgrowth, NGF 1.1 nM; SPR binding; TF-1 IC50 4.3 nM; conditions: tags: amine-coupled to CM5 chip in SPR; soluble in cell assays; chain copies: 2
[10] = target: T1, NGF (nerve growth factor); test: cell_activity; neurite outgrowth, NGF 1.1 nM; SPR binding; TF-1 IC50 6.8 nM; conditions: tags: amine-coupled to CM5 chip in SPR; soluble in cell assays; chain copies: 2
Protocol: as §1, §2

[11] = target: T1, NGF (nerve growth factor); test: cell_activity; neurite outgrowth, NGF 1.1 nM; SPR binding; TF-1 IC50 3.4 nM; conditions: tags: amine-coupled to CM5 chip in SPR; soluble in cell assays; chain copies: 2
[12] = target: T1, NGF (nerve growth factor); test: cell_activity; neurite outgrowth, NGF 1.1 nM; SPR binding; TF-1 IC50 2.4 nM; conditions: tags: amine-coupled to CM5 chip in SPR; soluble in cell assays; chain copies: 2
Protocol: as §1, §2

[13] = target: T1, NGF (nerve growth factor); test: cell_activity; neurite outgrowth, NGF 1.1 nM; SPR binding; TF-1 IC50 >10 nM; conditions: tags: amine-coupled to CM5 chip in SPR; soluble in cell assays; chain copies: 2
Protocol: as §1, §2

[14] = target: T1, NGF (nerve growth factor); test: cell_activity; neurite outgrowth, NGF 0.38 nM; SPR binding; TF-1 IC50 0.041 nM; conditions: tags: amine-coupled to CM5 chip in SPR; soluble in cell assays; chain copies: 2
Protocol: as §1, §2

[15] = target: T1, NGF (nerve growth factor); test: cell_activity; neurite outgrowth, NGF 0.38 nM; SPR binding; TF-1 IC50 0.058 nM; conditions: tags: amine-coupled to CM5 chip in SPR; soluble in cell assays; chain copies: 2
[16] = target: T1, NGF (nerve growth factor); test: cell_activity; neurite outgrowth, NGF 0.38 nM; SPR binding; TF-1 IC50 0.052 nM; conditions: tags: amine-coupled to CM5 chip in SPR; soluble in cell assays; chain copies: 2
Protocol: as §1, §2

[17] = target: T1, NGF (nerve growth factor); test: cell_activity; neurite outgrowth, NGF 0.38 nM; SPR binding; TF-1 IC50 0.074 nM; conditions: tags: amine-coupled to CM5 chip in SPR; soluble in cell assays; chain copies: 2
Protocol: as §1, §2

T1 sequence (P01138 122-241, one chain of several): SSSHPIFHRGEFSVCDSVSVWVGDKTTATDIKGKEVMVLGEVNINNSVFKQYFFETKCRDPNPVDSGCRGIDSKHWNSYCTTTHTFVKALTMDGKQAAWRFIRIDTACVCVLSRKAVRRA

B1: aptamer ID 55 (ssRNA)
RNA: GGGAUAAAAAUAGAGUUUGAUAAACACCUGUAUUAAAACCC
modifications: 5' cholesterol; 3' idT; 2'-F pyrimidines and a37,a38; 2'-OMe other purines except 2'-OH at 4,7,30
IC50 [1]: 9.8 nM

B2: aptamer ID 56 (mixed)
mixed: B1 RNA with U21T
modifications: 5' cholesterol; 3' idT; 2'-F pyrimidines (except dT at 21) and a37,a38; 2'-OMe other purines except 2'-OH at 4,7,30
IC50 [2]: 4.1 nM

B3: aptamer ID 26(2) (ssRNA)
RNA: GGGAGACUCGCCAGAGUUGAAAGAAACCCAAAUAAGUGUGCGCAC
modifications: 2'-F pyrimidines; 2'-OMe purines except 2'-OH at 3,5,19-22,24,26; 5' idT and 3' idT
binding result (NT-3): no binding | IC50 [3]: 0.06 nM

B4: aptamer ID 60 (mixed)
mixed: B1 RNA with U16T, U21T, A23U
modifications: 5' cholesterol; 3' idT; 2'-F pyrimidines (except dT at 16,21) and a37,a38; 2'-OMe other purines except 2'-OH at 4,7,30
IC50 [4]: < 3 nM

B5: aptamer ID 61 (mixed)
mixed: B1 RNA with U16T, U21T
modifications: 5' cholesterol; 3' idT; 2'-F pyrimidines (except dT at 16,21) and a38; 2'-OMe other purines except 2'-OH at 4,7,30,37
IC50 [5]: < 3 nM

B6: aptamer ID 62 (mixed)
mixed: B1 RNA with U16T, U21T
modifications: 5' cholesterol; 3' idT; 2'-F pyrimidines (except dT at 16,21) and a37; 2'-OMe other purines except 2'-OH at 4,7,30,38
IC50 [6]: 4.6 nM

B7: aptamer ID 63 (mixed)
mixed: B1 RNA with U16T, U21T
modifications: 5' cholesterol; 3' idT; 2'-F pyrimidines (except dT at 16,21); 2'-OMe other purines except 2'-OH at 4,7,30,37,38
IC50 [7]: < 3 nM

B8: aptamer ID 26(1) (ssRNA)
RNA: B3 RNA
modifications: 2'-F pyrimidines; 2'-OMe purines except 2'-OH at 3,5,19-23,25; 5' idT and 3' idT
IC50 [8]: 0.06 nM

B9: aptamer ID 26(3) (ssRNA)
RNA: B3 RNA
modifications: 2'-F pyrimidines; 2'-OMe at 6,10,13-16; other purines 2'-OH
IC50 [9]: < 1 nM

B10: aptamer ID 26(4) (ssRNA)
RNA: B3 RNA
modifications: 2'-F pyrimidines; 2'-OMe at 1,2,4,5,23-26; other purines 2'-OH
IC50 [10]: < 1 nM

B11: aptamer ID 26(5) (ssRNA)
RNA: B3 RNA
modifications: 2'-F pyrimidines; 2'-OMe at 30-32,34,35; other purines 2'-OH
IC50 [11]: < 1 nM

B12: aptamer ID 26(7) (ssRNA)
RNA: B3 RNA
modifications: 2'-F pyrimidines; 2'-OMe at 21; other purines 2'-OH
IC50 [12]: < 1 nM

B13: aptamer ID 26(8) (ssRNA)
RNA: B3 RNA
modifications: 2'-F pyrimidines; 2'-OMe at 22; other purines 2'-OH
IC50 [13]: < 1 nM

B14: aptamer ID 26(9) (ssRNA)
RNA: B3 RNA
modifications: 2'-F pyrimidines; 2'-OMe purines except 2'-OH at 3,5,19-22,26; 5' idT and 3' idT
IC50 [14]: 0.052 nM

B15: aptamer ID 26(11) (ssRNA)
RNA: B3 RNA
modifications: 2'-F pyrimidines; 2'-OMe purines except 2'-OH at 3,5,19-22; 5' idT and 3' idT
IC50 [15]: 0.087 nM

B16: aptamer ID 26(12) (ssRNA)
RNA: B3 RNA
modifications: 2'-F pyrimidines; 2'-OMe purines except 2'-OH at 3,19-22,24,26; 5' idT and 3' idT
IC50 [16]: 0.036 nM

B17: aptamer ID 26(13) (ssRNA)
RNA: B3 RNA
modifications: 2'-F pyrimidines; 2'-OMe purines except 2'-OH at 3,5,19,20,22,24,26; 5' idT and 3' idT
IC50 [17]: 0.039 nM
